The chains are these.
B1: Azoarcus group I ribozyme (parent)
chain: GUGCCUUGCGCCGGGAAACCACGCAAGGGAUGGUGUCAAAUUCGGCGAAACCUAAGCGCCCGCCCGGGCGUAUGGCAACGCCGAGCCAAGCUUCGGCGCCUGCGCCGAUGAAGGUGUAGAGACUAGACGGCACCCACCUAAGGCAAACGCUAUGGUGAAGGCAUAGUCCAGGGAGUGGCGAAAGUCACACAAACCGG

In the data set the parent is B1. Briefly: reverse-splicing fitness (ratio to wild type); higher = more active; in vitro selection; Mg2+ level not given. The gist of the method: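 An in vitro group I ribozyme library with randomized positions was T7-transcribed and gel-purified. In triplicate, 10 pmol RNA in EPPS pH 7.5 was reacted with 50 pmoles of a 30-nt RNA substrate for 1 h at 37 °C across several added MgCl2 levels (1–48 mM), then stopped with EDTA. Products were reverse transcribed from a substrate-complementary primer, PCR-amplified and sequenced (HiSeq 4000). Fitness is a variant's read proportion after selection over that before, normalised to wild type.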
GUGCCUUGCGCCGGGAAACCACGCAAGGGAUGGUGUCAAAUUCGGCGAAACCUAAGCGCCCGCCCGGGCGUAUGGCAACGCCGAGCCAAGCUUCGGCGCCUGCGCCGAUGCAGGUGUAGCGACUAGACGGCACCCACCUAAGGCAAACGAUAUGGUGAAGGCAUAGUCGAGGGAGCGGCGAAAGUCACACAAACCGG [A111C A120C C150A C169G U176C]: the reverse-splicing fitness is 0.021.

With GUGCCUUGCGCCGGGAAACCACGCAAGGGAUGGUGUCAAAUUCGGCGAAACCUAAGCGCCCGCCCGGGCGUAUGGCAACGCGGAGCCAAGCUUCGGCGCCUGCGCCGAUGAAGGUGUAGCGACUAGACGGCACCCACCUAAGGCUAACGUUAUGGUGAAGGCAUAGUCAAGGGAGAGGCGAAAGUCACACAAACCGG [C82G A120C A145U C150U C169A U176A], the reverse-splicing fitness worked out at 0.015.

As to GUGCCUUGCGCCGGGAAACCACGCAAGGGAUGGUGUCAAAUUCGGCGAAACCUAAGCGCCCGCCCGGGCGUAUGGCAACGCUGAGCCAAGCUUCGGCGCCUGCGCCGAUGAAGGUGUAGUGACUAGACGGCACCCACCUAAGGCUAACGAUAUGGUGAAGGCAUAGUCCAGGGAGGGGCGAAAGUCACACAAACCGG [C82U A120U A145U C150A U176G], the reverse-splicing fitness stood at 0.00379.

GUGCCUUGCGCCGGGAAACCACGCAAGGGAUGGUGUCAAAUUCGGCGAAACCUAAGCGCCCGCCCGGGCGUAUGGCAACGCCGAGCCAAGCUUCGGCGCCUGCGCCGAUGCAGGUGUAGCGACUAGACGGCACCCACCUAAGGCCAACGUUAUGGUGAAGGCAUAGUCGAGGGAGUGGCGAAAGUCACACAAACCGG [A111C A120C A145C C150U C169G]: the reverse-splicing fitness stood at 0.00649.

Take GUGCCUUGCGCCGGGAAACCACGCAAGGGAUGGUGUCAAAUUCGGCGAAACCUAAGCGCCCGCCCGGGCGUAUGGCAACGCGGAGCCAAGCUUCGGCGCCUGCGCCGAUGAAGGUGUAGGGACUAGACGGCACCCACCUAAGGCGAACGCUAUGGUGAAGGCAUAGUCGAGGGAGAGGCGAAAGUCACACAAACCGG [C82G A120G A145G C169G U176A]: the reverse-splicing fitness was 0.0221.

Consider GUGCCUUGCGCCGGGAAACCACGCAAGGGAUGGUGUCAAAUUCGGCGAAACCUAAGCGCCCGCCCGGGCGUAUGGCAACGCAGAGCCAAGCUUCGGCGCCUGCGCCGAUGUAGGUGUAGGGACUAGACGGCACCCACCUAAGGCGAACGGUAUGGUGAAGGCAUAGUCUAGGGAGAGGCGAAAGUCACACAAACCGG [C82A A111U A120G A145G C150G C169U U176A], for which the reverse-splicing fitness came to 0.0121.

Consider GUGCCUUGCGCCGGGAAACCACGCAAGGGAUGGUGUCAAAUUCGGCGAAACCUAAGCGCCCGCCCGGGCGUAUGGCAACGCUGAGCCAAGCUUCGGCGCCUGCGCCGAUGGAGGUGUAGUGACUAGACGGCACCCACCUAAGGCUAACGGUAUGGUGAAGGCAUAGUCAAGGGAGAGGCGAAAGUCACACAAACCGG [C82U A111G A120U A145U C150G C169A U176A], for which the reverse-splicing fitness stood at 0.00259.

As to GUGCCUUGCGCCGGGAAACCACGCAAGGGAUGGUGUCAAAUUCGGCGAAACCUAAGCGCCCGCCCGGGCGUAUGGCAACGCAGAGCCAAGCUUCGGCGCCUGCGCCGAUGGAGGUGUAGGGACUAGACGGCACCCACCUAAGGCUAACGAUAUGGUGAAGGCAUAGUCCAGGGAGCGGCGAAAGUCACACAAACCGG [C82A A111G A120G A145U C150A U176C], the reverse-splicing fitness was determined as 0.0154.

In the case of GUGCCUUGCGCCGGGAAACCACGCAAGGGAUGGUGUCAAAUUCGGCGAAACCUAAGCGCCCGCCCGGGCGUAUGGCAACGCCGAGCCAAGCUUCGGCGCCUGCGCCGAUGUAGGUGUAGUGACUAGACGGCACCCACCUAAGGCUAACGGUAUGGUGAAGGCAUAGUCUAGGGAGAGGCGAAAGUCACACAAACCGG [A111U A120U A145U C150G C169U U176A], the reverse-splicing fitness was found to be 0.00295.

In the case of GUGCCUUGCGCCGGGAAACCACGCAAGGGAUGGUGUCAAAUUCGGCGAAACCUAAGCGCCCGCCCGGGCGUAUGGCAACGCUGAGCCAAGCUUCGGCGCCUGCGCCGAUGUAGGUGUAGGGACUAGACGGCACCCACCUAAGGCCAACGAUAUGGUGAAGGCAUAGUCGAGGGAGCGGCGAAAGUCACACAAACCGG [C82U A111U A120G A145C C150A C169G U176C], the reverse-splicing fitness amounted to 0.0136.

With GUGCCUUGCGCCGGGAAACCACGCAAGGGAUGGUGUCAAAUUCGGCGAAACCUAAGCGCCCGCCCGGGCGUAUGGCAACGCCGAGCCAAGCUUCGGCGCCUGCGCCGAUGUAGGUGUAGAGACUAGACGGCACCCACCUAAGGCCAACGAUAUGGUGAAGGCAUAGUCAAGGGAGGGGCGAAAGUCACACAAACCGG [A111U A145C C150A C169A U176G], the reverse-splicing fitness amounted to 0.00617.

Regarding GUGCCUUGCGCCGGGAAACCACGCAAGGGAUGGUGUCAAAUUCGGCGAAACCUAAGCGCCCGCCCGGGCGUAUGGCAACGCAGAGCCAAGCUUCGGCGCCUGCGCCGAUGGAGGUGUAGGGACUAGACGGCACCCACCUAAGGCCAACGGUAUGGUGAAGGCAUAGUCUAGGGAGCGGCGAAAGUCACACAAACCGG [C82A A111G A120G A145C C150G C169U U176C], the reverse-splicing fitness stood at 0.0141.

Regarding GUGCCUUGCGCCGGGAAACCACGCAAGGGAUGGUGUCAAAUUCGGCGAAACCUAAGCGCCCGCCCGGGCGUAUGGCAACGCCGAGCCAAGCUUCGGCGCCUGCGCCGAUGCAGGUGUAGGGACUAGACGGCACCCACCUAAGGCGAACGAUAUGGUGAAGGCAUAGUCAAGGGAGCGGCGAAAGUCACACAAACCGG [A111C A120G A145G C150A C169A U176C], the reverse-splicing fitness amounted to 0.022.

On to GUGCCUUGCGCCGGGAAACCACGCAAGGGAUGGUGUCAAAUUCGGCGAAACCUAAGCGCCCGCCCGGGCGUAUGGCAACGCUGAGCCAAGCUUCGGCGCCUGCGCCGAUGAAGGUGUAGAGACUAGACGGCACCCACCUAAGGCAAACGCUAUGGUGAAGGCAUAGUCGAGGGAGAGGCGAAAGUCACACAAACCGG [C82U C169G U176A], for which the reverse-splicing fitness came to 0.0144.

GUGCCUUGCGCCGGGAAACCACGCAAGGGAUGGUGUCAAAUUCGGCGAAACCUAAGCGCCCGCCCGGGCGUAUGGCAACGCGGAGCCAAGCUUCGGCGCCUGCGCCGAUGCAGGUGUAGCGACUAGACGGCACCCACCUAAGGCGAACGCUAUGGUGAAGGCAUAGUCCAGGGAGUGGCGAAAGUCACACAAACCGG [C82G A111C A120C A145G]: the reverse-splicing fitness is 0.053.
